Drawing on the supplement of paper PMC10567573, this text covers protein stability index for 72 sequences.

± gives the standard deviation.

The nature of this series: protein stability index of a GFP-peptide fusion (GPS, HEK-293T) (PSI 1-6); higher = more stable.
Where [1] appears, read: treatment: DMSO, c terminus: a fixed tail appended.
Setting [2] is: treatment: MLN4924 1 uM, 8 h, c terminus: a fixed tail appended.
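Note: 24-mer peptide tiles fused after GFP, lentivirally expressed, FACS-sorted into six equal bins by GFP/DsRed ratio, decoded by Illumina sequencing, PSI is the read-weighted mean bin number.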

For QAAKQIKDGVTMAPAFRLSLKAKV [FSD1], the protein stability index worked out at 3 ± 0.23 under setting [1] and 3.02 ± 0.33 under setting [2].
For QCNICGKCFSCNSNLHRHQRTHTG [ZNF263] the same measures were 4.44 ± 0.13 and 4.63 ± 0.29.
On to QCPYCQRRFNENAADRHINFCKEQ [ZC2HC1A], for which the protein stability index reads like this: under setting [1], 4.91 ± 0.38; under setting [2], 5.09 ± 0.2.
On the same counts, the results for QDFLLFSPEVESLPVASSSTLLPL [NFE2L1] are 3.34 ± 0.79 and 3.37 ± 0.57.
In the case of QEKLQVLMAEGLLPAVKVFLDWLR [SMG5], the protein stability index by setting is: under setting [1], 2.5 ± 0.7; under setting [2], 2.57 ± 0.54.
For QFEPQLTLWDVFGANKEVQELLER [RSAD1] the same measures were 3.24 ± 0.26 and 3.8 ± 0.47.
For QGENQEHLVIAEMMELGSRSRGAS [FATE1] the same measures were 4.73 ± 0.34 and 4.73 ± 0.12.
Turning to QGEYPPGTSTWQFNFKFNLTEDMY [CNOT7], the protein stability index by setting is: under setting [1], 1.9 ± 0.42; under setting [2], 2.15 ± 0.46.
For QGLLHEAGSTDDRIVVPQRGRSTR [SPNS1] the same measures were 5.13 ± 0.32 and 5.14 ± 0.15.
As for QGRNSLWLSDWVTSYKVMVSNDSH [CPXM2], the protein stability index amounted to 1.92 ± 0.25 under setting [1] and 2.47 ± 0.56 under setting [2].
On the same counts, the results for QGSRSGVSGGSRSLNMSRRDSEST [PHTF1] are 4.86 ± 0.4 and 4.9 ± 0.22.
Take QIILENQKNFGLYVQEKRDGLKRR [RAD54B]: the protein stability index was found to be 2.41 ± 0.47 under setting [1] and 2.97 ± 0.32 under setting [2].
On the same counts, the results for QKEGEFSTCFTELQRDFLKQRPTK [OAS1] are 4.26 ± 0.45 and 4.22 ± 0.3.
QLQDQDQKLLEQTQIIGEQNARLA [FBXO28]: the protein stability index runs as follows: under setting [1], 4.75 ± 0.18; under setting [2], 4.74 ± 0.15.
For QLRNVRERLAKNLVEKGVLTTEKQ [GOLPH3] the same measures were 3.68 ± 0.34 and 3.84 ± 0.17.
As to QLVSFQKLKLTNNHLDPFGHIILN [TBX5], the protein stability index was determined as 2.33 ± 0.39 under setting [1] and 2.23 ± 0.33 under setting [2].
On the same counts, the results for QNLLKELQDLALQGAKERAHQQKK [CHGA] are 4.75 ± 0.23 and 4.52 ± 0.14.
For QNQPIDKARKTYERLVAQFPSSGR [CSTF3] the same measures were 3.75 ± 0.26 and 3.9 ± 0.24.
QPKKLHLCPLCGKNFSNNSNLIRH [ZNF263] gave a protein stability index under setting [1] of 3.02 ± 0.39 and a protein stability index under setting [2] of 3.37 ± 0.64.
On the same counts, the results for QPVMQSDRTAIRSDTTHLVTLGGV [KLHL13] are 3.88 ± 0.28 and 3.83 ± 0.35.
For QPVQSKPQKASAPAADPPRYTFAP [PDLIM7] the same measures were 4.37 ± 0.27 and 4.44 ± 0.3.
For QQAEKILKSMDKNGTMTIDWNEWR [SLC25A25] the same measures were 3.36 ± 0.47 and 3.56 ± 0.39.
Regarding QQLDLRWNNVGLLGGRALMNCLPS [LRRC45], the protein stability index runs as follows: under setting [1], 2.65 ± 0.2; under setting [2], 2.48 ± 0.2.
On the same counts, the results for QRITQEQEKKLSFIEALIQQYQEQ [TRIM63] are 2.68 ± 0.36 and 3.02 ± 0.52.
For QRLPRSAPPGSLVTKVTAVDADAG [PCDHGC5], the protein stability index runs as follows: under setting [1], 4.76 ± 0.21; under setting [2], 4.82 ± 0.3.
For QRRSRQNPQSPPQDSSVTSKRNIK [HDAC6] the same measures were 5.26 ± 0.51 and 5.27 ± 0.31.
For QSWNNQAWNSPFYNCGEESLQSCM [NANOGP8] the same measures were 2.51 ± 0.18 and 2.48 ± 0.33.
For QVAKREREAATKHSKASLPTGEGS [CHCHD6] the same measures were 5.32 ± 0.47 and 5.26 ± 0.33.
As to QVTASDSGDPPLSSNVSLSLFVLD [PCDHGA10], the protein stability index came out at 3.31 ± 0.4 under setting [1] and 3.48 ± 0.29 under setting [2].
The sequence QVVVLVRDNGDPSLSSTATVLLVL [PCDHGC5] showed a protein stability index under setting [1] of 3.25 ± 0.44 and a protein stability index under setting [2] of 3.17 ± 0.23.
For QYAIISEAWRLVEEGIVSPSDLDL [CRYL1] the same measures were 3.16 ± 0.19 and 3.21 ± 0.34.
For QYKKEPVTTRQVRTIVEEVQDGKV [KRT17] the same measures were 5 ± 0.22 and 5.12 ± 0.29.
For RAAYQQVIQPALPGQPLPGASVRG [TRAF3IP2] the same measures were 4.36 ± 0.35 and 4.18 ± 0.32.
For the sequence RAKFKRKYKVKLVEKRAFREIQL [NOP53], the protein stability index runs as follows: (treatment: DMSO, c terminus: native) 2.56 ± 0.36; (treatment: MLN4924 1 uM, 8 h, c terminus: native) 2.79 ± 0.17.
RAPLHSVGYTALVGSDAESWGWDL [SPSB4] yielded a protein stability index under setting [1] of 2.81 ± 0.28 and a protein stability index under setting [2] of 3.13 ± 0.17.
On the same counts, the results for RAPPKRKRKRVKQRINTYVFVGNQ [PCMTD1] are 3.53 ± 0.15 and 3.41 ± 0.43.
For RAVLGANDPEKNFLTTAIRPHGIF [NSDHL] the same measures were 2.73 ± 0.47 and 3.33 ± 0.039.
On the same counts, the results for RCLHMFLQDEIIDKSYTPSKIRHA [SNX3] are 2.05 ± 0.58 and 1.92 ± 0.52.
Consider RDKILTATIENNRVILEIDNARLA [KRT13], for which the protein stability index is 2.69 ± 0.29 under setting [1] and 2.83 ± 0.33 under setting [2].
For RDNDHPDHSSRELSKILAKLERLK [FUT8] the same measures were 2.39 ± 0.25 and 2.27 ± 0.24.
On to REAVPALLGEPLAGPELDEMLREV [CABP4], for which the protein stability index came out at 5.13 ± 0.22 under setting [1] and 5.12 ± 0.31 under setting [2].
For RECGLAAPRFSFNDPSGSEEADFL [IRX6] the same measures were 4.53 ± 0.21 and 4.34 ± 0.33.
Regarding REEEDRALPENEFKKQIWLLFEYP [KCNA4], the protein stability index reads like this: under setting [1], 2.7 ± 0.19; under setting [2], 2.94 ± 0.46.
For REENEKLRLENSSLFSQALKDEEA [CCDC89] the same measures were 5.41 ± 0.46 and 5.41 ± 0.37.
For RELGPEELDELQAAFEEFDTDRDG [CABP4] the same measures were 5.63 ± 0.39 and 5.54 ± 0.35.
On the same counts, the results for REVILKELAEATWCGISTDMWRSE [ZBED1] are 2.71 ± 0.62 and 2.93 ± 0.58.
In the case of REYLSEEVQAVHKNTTYDLIANIV [USP39], the protein stability index reads like this: under setting [1], 2.23 ± 0.23; under setting [2], 2.32 ± 0.11.
As to RFALRFIRPDPRSRVTDPVGDIVS [FAF2], the protein stability index by setting is: under setting [1], 2.49 ± 0.35; under setting [2], 2.62 ± 0.31.
For RGADDAMESSKPGPVQVVLVQKDQ [ATL3] the same measures were 5.09 ± 0.3 and 4.95 ± 0.62.
On the same counts, the results for RGAQGVILVYDIANRWSFDGIDRW [RAB40B] are 2.29 ± 0.65 and 2.19 ± 0.15.
For RGPSPVVLGSQDALPIATAFTEYV [FCHO1] the same measures were 3.14 ± 0.39 and 3.18 ± 0.3.
Consider RHQRTHTGEKPYQCNICGKCFSCN [ZNF263], for which the protein stability index reads like this: under setting [1], 4.08 ± 0.43; under setting [2], 4.37 ± 0.3.
Regarding RIDELIESGKEEGMKIDLIDGKGR [KMT5A], the protein stability index amounted to 4.96 ± 0.23 under setting [1] and 4.85 ± 0.33 under setting [2].
On the same counts, the results for RIFTSNTHSSVVLQGFDQLRLEGL [KLHL13] are 2.42 ± 0.18 and 2.49 ± 0.27.
On the same counts, the results for RIKIRQCIGLQNLKLLDELPIAKV [ASB7] are 2.12 ± 0.31 and 2.19 ± 0.49.
In turn, RKCPVHGKTMELFCQTDQTCICYL [TRIM29] registered a protein stability index under setting [1] of 2.94 ± 0.61 and a protein stability index under setting [2] of 3.72 ± 0.59.
On the same counts, the results for RKKSGDLKKAKVQVERMREVNSRC [FBXO34] are 4.15 ± 0.17 and 4.38 ± 0.42.
For RLLRDSEAFCHANCSGPAPAAKPD [P3H4] the same measures were 4.01 ± 0.35 and 4.01 ± 0.47.
On the same counts, the results for RLRALGERHTMDLTVEGFQSWMWR [TMEM120A] are 2.38 ± 0.27 and 2.58 ± 0.49.
Consider RNGQWSEPPKCLDPCVISQEIMEK [CFHR2], for which the protein stability index is 4.24 ± 0.063 under setting [1] and 4.07 ± 0.24 under setting [2].
On the same counts, the results for RPARSTLDELLGRGMATKLLARPG [FBF1] are 2.61 ± 0.19 and 2.63 ± 0.17.
As for RQLMKVVNEMCPNITRIYNIGKSH [CPXM2], the protein stability index is 2.26 ± 0.12 under setting [1] and 2.71 ± 0.56 under setting [2].
On the same counts, the results for RQLPPPPTPANEERRGGLPPLPLH [WAS] are 4.53 ± 0.22 and 4.52 ± 0.14.
For the sequence RQLRRRALHPERAMDNHSDSEEEL [RETREG3], the protein stability index is, setting by setting: under setting [1], 5.47 ± 0.15; under setting [2], 5.51 ± 0.2.
Turning to RQTSTKAVQHFYNIKLEGKVPMHK [ESRRG], the protein stability index under setting [1] amounted to 3.32 ± 0.11 and the protein stability index under setting [2] was 3.5 ± 0.26.
RRDCDALMAGCIQEARERWNFDFV [CDKN1A] showed a protein stability index under setting [1] of 2.06 ± 0.25 and a protein stability index under setting [2] of 2.05 ± 0.19.
For RRGLLVSLNELMIVIGILSAYISN [SLC2A12], the protein stability index reads like this: under setting [1], 3.05 ± 0.72; under setting [2], 2.67 ± 0.84.
Turning to RRNPELQEELQIQAAVAAGDVHTV [ASB7], the protein stability index runs as follows: under setting [1], 4.85 ± 0.18; under setting [2], 4.82 ± 0.16.
For RRRGPRNKKRGWRRLAQEPLGLEV [NOP53] the same measures were 3.65 ± 0.18 and 3.73 ± 0.4.
With RRSRDPGYDHLWDETLSSSHQKCP [PLEKHN1], the protein stability index by setting is: under setting [1], 3.81 ± 0.32; under setting [2], 4.04 ± 0.13.
For RRTRPRHHHGRSRPDRSSQGGSLP [CHGB], the protein stability index stood at 4.93 ± 0.36 under setting [1] and 5.07 ± 0.23 under setting [2].
For RSIPDTQLEQVIESQKANQCAVLI [ACSBG2] the same measures were 3.54 ± 0.14 and 3.67 ± 0.47.
